Experimental findings from publication PMC4947154, “Structural basis of transcobalamin recognition by human CD320 receptor” (Nature Communications, 2016) are described below.

To fix the notation:
T1: CD320 extracellular domain, residues 53-199 (crystallization construct) (human, UniProt Q9NPF0 53-199)
T1 construct: CD320 (transcobalamin receptor), human, residues 53-199 of the extracellular domain; native secretion signal replaced with a Melittin secretion signal; Density seen for LDLR-A1 residues 53-89 and LDLR-A2 residues 129-171; none for the EGF-like domain (90-128); also called N-terminal 22 amino acid deletion of the receptor; not shown: His9, N-terminal, cleaved; MBP, N-terminal, cleaved
T1 sequence (looked up): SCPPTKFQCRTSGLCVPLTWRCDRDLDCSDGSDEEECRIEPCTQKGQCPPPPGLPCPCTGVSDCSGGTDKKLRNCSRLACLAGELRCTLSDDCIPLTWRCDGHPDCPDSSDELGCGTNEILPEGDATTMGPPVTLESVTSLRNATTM

B1: MBP-tagged, biotinylated CD320 LDLR-A2 domain (residues 125-199, Avi Tag) (domain or fragment)
chain: not shown
modifications: biotin on the Avi Tag (BirA)
notes: CD320, human, LDLR type A domain 2 construct, residues 125-199; source: Sf21 insect cells (Multibac baculovirus), secreted, purified (Ni-NTA, no MBP cleavage), biotinylated with BirA; not shown: His9, N-terminal, kept; MBP, N-terminal, kept
B2: human transcobalamin (holo-TC, cyanocobalamin-bound) (natural protein, UniProt P20062 19-427, looked up)
chain: EMCEIPEMDSHLVEKLGQHLLPWMDRLSLEHLNPSIYVGLRLSSLQAGTKEDLYLHSLKLGYQQCLLGSAFSEDDGDCQGKPSMGQLALYLLALRANCEFVRGHKGDRLVSQLKWFLEDEKRAIGHDHKGHPHTSYYQYGLGILALCLHQKRVHDSVVDKLLYAVEPFHQGHHSVDTAAMAGLAFTCLKRSNFNPGRRQRITMAIRTVQEEILKAQTPEGHFGNVYSTPLALQFLMTSPMRGAELGTACLKARVALLASLQDGAFQNALMISQLLPVLNHKTYIDLIFPDCLAPRVMLEPAAETIPQTQEIISVTLQVLSLLPPYRQSISVLAGSTVEDVLKKAHELGGFTYETQASLSGPYLTSVMGKAAGEREFWQLLRDPNTPLLQGIADYRPKDGETIELRLVSW
notes: transcobalamin (TC), human, residues 1-409, cDNA GenBank BC001176.1 harbouring R209Q; native secretion signal replaced with a Melittin secretion signal; Purified in the presence of excess cyanocobalamin (Cbl-CN), so the Cbl site is occupied; R209Q came with the bought cDNA clone (ImaGenes); also called tag-less TC; full-length TC; source: Sf21 insect cells (Multibac baculovirus), secreted, …

The target of assay [1] is B2. Kind of assay: ELISA; solid-phase binding assay: biotinylated MBP-tagged receptor on Neutravidin plates, tag-less TC serially diluted in 20 mM Tris pH 7.5, 0.5 mM CaCl2, 150 mM NaCl, 0.05% Tween-20, 1 h RT; TC detected with antibody A-5; single-site fit, n=5. As to conditions: both partners purified. For orientation: ELISA stands for enzyme-linked immunosorbent assay.

Assay [2] deals with T1, CD320 extracellular domain, residues …. Kind of assay: crystal structure; co-crystals of the purified complex, sitting drop, 20 °C. The note with it: both partners purified.

The term Kd denotes a measure of binding affinity in units of concentration. In turn, B1 yielded a Kd in assay [1] of roughly 10 nM.
For the molecule B2, the “stoichiometry N” value in assay [2] is 1 TC:CD320.
